T1: CD19 on CD19-positive tumor cell lines (human, UniProt P15391 20-556)
T1 sequence (looked up): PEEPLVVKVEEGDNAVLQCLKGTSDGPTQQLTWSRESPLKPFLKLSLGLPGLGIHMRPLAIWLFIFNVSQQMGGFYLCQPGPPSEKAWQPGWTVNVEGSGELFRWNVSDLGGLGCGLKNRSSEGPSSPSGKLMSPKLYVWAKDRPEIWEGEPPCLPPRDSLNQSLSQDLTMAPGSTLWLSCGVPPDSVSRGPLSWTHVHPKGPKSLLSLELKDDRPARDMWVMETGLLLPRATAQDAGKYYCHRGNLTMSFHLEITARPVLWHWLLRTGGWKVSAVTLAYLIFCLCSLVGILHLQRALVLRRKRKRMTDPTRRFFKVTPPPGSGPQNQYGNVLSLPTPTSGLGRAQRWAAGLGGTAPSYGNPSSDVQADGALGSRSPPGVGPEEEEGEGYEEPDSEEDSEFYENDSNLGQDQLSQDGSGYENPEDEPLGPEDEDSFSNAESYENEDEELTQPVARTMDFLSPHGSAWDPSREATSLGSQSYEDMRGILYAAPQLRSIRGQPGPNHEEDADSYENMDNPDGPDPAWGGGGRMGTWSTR


Legend:
[1] = molecular target: T1, CD19 on CD19-positive tumor cell lines; experiment: cell-based or functional assay
[2] = molecular target: CD19 on CD19-positive tumor cell lines (human) (UniProt P15391); experiment: cell-based or functional assay

| Molecule | IC50 (ng/mL) of anti-CD19 antibody linked with 2°-ADC, cell viability (resazurin, 96 h), CA46 cells [1] [ng/mL] | IC50 (ng/mL) of anti-CD19 antibody linked with 2°-ADC, cell viability (resazurin, 96 h), HS Sultan cells [1] [ng/mL] | IC50 (ng/mL) of anti-CD19 antibody linked with 2°-ADC, cell viability (resazurin, 96 h), HT cells [1] [ng/mL] | IC50 (ng/mL) of anti-CD19 antibody linked with 2°-ADC, cell viability (resazurin, 96 h), MC 116 cells [1] [ng/mL] | IC50 (ng/mL) of anti-CD19 antibody linked with 2°-ADC, cell viability (resazurin, 96 h), Ramos cells [1] [ng/mL] | IC50 (ng/mL) of anti-CD19 antibody linked with 2°-ADC, cell viability (resazurin, 96 h), Toledo cells [1] [ng/mL] | internalization kinetics by FACS, CD21 low Ramos cells [1] [%] | IC50 (ng/mL) of anti-CD19 antibody linked with 2°-ADC, cell viability (resazurin, 96 h), CA46 cells [2] [ng/mL] | IC50 (ng/mL) of anti-CD19 antibody linked with 2°-ADC, cell viability (resazurin, 96 h), HS Sultan cells [2] [ng/mL] | IC50 (ng/mL) of anti-CD19 antibody linked with 2°-ADC, cell viability (resazurin, 96 h), MC 116 cells [2] [ng/mL] | IC50 (ng/mL) of anti-CD19 antibody linked with 2°-ADC, cell viability (resazurin, 96 h), Ramos cells [2] [ng/mL] | IC50 (ng/mL) of anti-CD19 antibody linked with 2°-ADC, cell viability (resazurin, 96 h), Toledo cells [2] [ng/mL] |
| --- | --- | --- | --- | --- | --- | --- | --- | --- | --- | --- | --- | --- |
| LT19 (antibody) | 4 | 112 | 111 | 192 | 1 | 584 |  |  |  |  |  |  |
| B-C3 (antibody) | 17 | 234 |  | 195 | 13 | 359 |  |  |  |  |  |  |
| HIB19 (antibody) | 1 | 97 | 1000 | 188 | 1 | 1000 |  |  |  |  |  |  |
| hBU12 (antibody) |  |  |  |  |  |  | 50 |  |  |  |  |  |
| hBU12-vcMMAE (antibody) |  |  |  |  |  |  | 50 |  |  |  |  |  |
| SJ25-C1 (antibody, from another filing, V domains shown) VH: EVKLQQSGAELVRPGSSVKISCKASGYAFSSYWMNWVKQRPGQGLEWIGQIYPGDGDTNYNGKFKGQATLTADKSSSTAYMQLSGLTSEDSAVYFCARKTISSVVDFYFDYWGQGTTVTVSS VL: DIELTQSPKFMSTSVGDRVSVTCKASQNVGTNVAWYQQKPGQSPKPLIYSATYRNSGVPDRFTGSGSGTDFTLTITNVQSKDLADYFCQQYNRYPYTSGGGTKLEI |  |  |  |  |  |  |  | 4 | 150 | 200 | 3 | 512 |
| cBU12 (antibody, V domains shown) VH: QVTLKESGPGILQPSQTLSLTCSFSGFSLSTSGMGVGWIRQPSGKGLEWLAHIWWDDDKRYNPALKSRLTISKDTSSNQVFLKIASVDTADTAAYYCARMELWSYYFDYWGQGTTLTVSS VL: ENVLTQSPAIMSASPGEKVTMTCSASSSVSYMHWYQQKSSTSPKLWIYDTSKLASGVPGRFSGSGSGNSHFLTISSMEAEDVATYYCFQGSVYPFTFGSGTKLEIKR | 7 | 100 | 238 | 186 | 5 | ~1000 |  |  |  |  |  |  |

From patent US20090136526A1 (Seagen, published 2009)
